# Assay results: article PMC7822592, “The half-life of the bone-derived hormone osteocalcin is regulated through O-glycosylation in mice, but not in humans” (eLife, 2020)
# No end group written: not given here.
# What was measured:
# [1] = In vivo half-life assay, serum OCN after intraperitoneal injection in Bglap-/- mice; design: species or system mouse; details: for serum OCN / in vivo half-life / % OCN from initial (relative to maximum at 30 min) / % OCN from initial, mean used for 1/2 life: 40 ng/g i.p.; for serum OCN: ELISA; for in vivo half-life: estimated from declining phase after maximum at 30 min, serum ELISA; for % OCN from initial (relative to maximum at 30 min) / % OCN from initial, mean used for 1/2 life: serum, fasted Bglap-/- mice
# Method: For in vivo half-life assay, Bglap-/- male mice were injected intraperitoneally with 40 or 80 ng/g of body weight of mouse O-glycosylated ucOCN or non-glycosylated ucOCN, serum OCN level was analyzed at indicated time points using total mouse OCN ELISA. In all ex vivo and in vivo studies, mouse or human proteins were prepared in saline solution (0.9% NaCl) containing BSA (35 mg/ml) as a carrier.
# human plasmin = target: T1, human plasmin (Homo sapiens, UniProt P00747); assay: Plasmin enzymatic assay on OCN in heat-inactivated plasma; format: in vitro ADME; details: for % OCN from initial: heat-inactivated Bglap-/- plasma diluted two times in 100 mM Tris pH 7.5, 50 ng/ml, ELISA; for % OCN from initial / % OCN from initial in plasmin (0.3 U/ml): 2hrs, 37°C; for % OCN from initial in plasmin (0.3 U/ml): inset graph, heat-inactivated Bglap-/- plasma, 50 ng/ml
# T1 construct: different concentration of human plasmin (Sigma); purchased Sigma P1867
# T1 sequence (P00747 581-810 limits assumed): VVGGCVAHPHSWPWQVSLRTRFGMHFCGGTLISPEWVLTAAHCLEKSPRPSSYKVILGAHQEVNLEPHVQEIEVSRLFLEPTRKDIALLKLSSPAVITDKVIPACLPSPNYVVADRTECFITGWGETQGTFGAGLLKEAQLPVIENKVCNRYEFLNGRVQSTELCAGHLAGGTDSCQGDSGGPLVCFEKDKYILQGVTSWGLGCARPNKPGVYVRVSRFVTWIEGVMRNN
# T1 sequence (P00747 97-580 partner limits assumed): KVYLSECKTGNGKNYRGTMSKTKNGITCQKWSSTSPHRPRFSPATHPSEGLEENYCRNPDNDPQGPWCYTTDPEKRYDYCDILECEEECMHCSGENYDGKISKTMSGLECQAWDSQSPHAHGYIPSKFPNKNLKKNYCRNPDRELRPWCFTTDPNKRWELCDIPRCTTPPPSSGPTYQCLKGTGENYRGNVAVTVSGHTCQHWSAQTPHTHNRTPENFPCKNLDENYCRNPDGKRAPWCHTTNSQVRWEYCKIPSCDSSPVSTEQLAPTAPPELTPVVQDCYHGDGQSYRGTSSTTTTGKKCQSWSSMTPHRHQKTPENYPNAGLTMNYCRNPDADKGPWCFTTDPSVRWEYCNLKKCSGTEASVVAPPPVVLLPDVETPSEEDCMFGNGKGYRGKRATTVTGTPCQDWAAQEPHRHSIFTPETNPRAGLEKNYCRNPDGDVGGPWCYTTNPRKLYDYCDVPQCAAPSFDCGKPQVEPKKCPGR
# Method: The plasmin enzymatic assay was performed on plasma ex vivo in the presence of non-glycosylated OCN and glycosylated OCN as follows: plasma from Bglap-/- mice was heat-inactivated for 30 min at 56°C, then diluted two times in the enzyme assay buffer containing 100 mM Tris buffer pH 7.5. Non-glycosylated OCN or glycosylated OCN was incubated at 50 ng/ml in the diluted plasma for two hours in the presence of different concentration of human plasmin (Sigma) ranging from 0 to 0.3 U/ml. After two hours, OCN level was measured using total mouse OCN ELISA. Results are represented as percentage of initial concentration of non-glycosylated and glycosylated OCN respectively.
substance,measurement,setting,value
"ucOCN: Non-glycosylated uncarboxylated mouse osteocalcin produced in bacteria (YLGASVPSPDPLEPTREQCELNPACDELSDQYGLKTAYKRIYGITI; ends and bridges not checked; cysteine pairing not given here; UniProt P86546 50-95, looked up)",serum OCN,"[1]; Bglap-/- male mice fasted 16 hr, 15 min, mouse 1",21.6 ng/mL
same,serum OCN,"[1]; Bglap-/- male mice fasted 16 hr, 15 min, mouse 2",16.5 ng/mL
same,serum OCN,"[1]; Bglap-/- male mice fasted 16 hr, 15 min, mouse 3",22.3 ng/mL
same,serum OCN,"[1]; Bglap-/- male mice fasted 16 hr, 15 min, mouse 4",21.8 ng/mL
same,serum OCN,"[1]; Bglap-/- male mice fasted 16 hr, 30 min, mouse 1",29.0 ng/mL
same,serum OCN,"[1]; Bglap-/- male mice fasted 16 hr, 30 min, mouse 2",18.8 ng/mL
same,serum OCN,"[1]; Bglap-/- male mice fasted 16 hr, 30 min, mouse 3",19.1 ng/mL
same,serum OCN,"[1]; Bglap-/- male mice fasted 16 hr, 30 min, mouse 4",16.7 ng/mL
same,serum OCN,"[1]; Bglap-/- male mice fasted 16 hr, 60 min, mouse 1",21.9 ng/mL
same,serum OCN,"[1]; Bglap-/- male mice fasted 16 hr, 60 min, mouse 2",14.4 ng/mL
same,serum OCN,"[1]; Bglap-/- male mice fasted 16 hr, 60 min, mouse 3",15.0 ng/mL
same,serum OCN,"[1]; Bglap-/- male mice fasted 16 hr, 60 min, mouse 4",14.8 ng/mL
same,serum OCN,"[1]; Bglap-/- male mice fasted 16 hr, 90 min, mouse 1",15.6 ng/mL
same,serum OCN,"[1]; Bglap-/- male mice fasted 16 hr, 90 min, mouse 2",12.2 ng/mL
same,serum OCN,"[1]; Bglap-/- male mice fasted 16 hr, 90 min, mouse 3",12.9 ng/mL
same,serum OCN,"[1]; Bglap-/- male mice fasted 16 hr, 90 min, mouse 4",13.2 ng/mL
same,serum OCN,"[1]; Bglap-/- male mice fasted 16 hr, 120 min, mouse 1",11.8 ng/mL
same,serum OCN,"[1]; Bglap-/- male mice fasted 16 hr, 120 min, mouse 2",10.3 ng/mL
same,serum OCN,"[1]; Bglap-/- male mice fasted 16 hr, 120 min, mouse 3",10.8 ng/mL
same,serum OCN,"[1]; Bglap-/- male mice fasted 16 hr, 120 min, mouse 4",12.0 ng/mL
same,in vivo half-life,[1]; Bglap-/- male mice fasted 16 hr,108 min
same,in vivo half-life,"[1]; Bglap-/- male mice fasted 16 hr, listed as non-glycosylated ucOCN",~ 108 min
same,serum OCN,"[1]; fed Bglap-/- male mice, 15 min, mouse 1",39.8 ng/mL
same,serum OCN,"[1]; fed Bglap-/- male mice, 15 min, mouse 2",45.5 ng/mL
same,serum OCN,"[1]; fed Bglap-/- male mice, 15 min, mouse 3",45.6 ng/mL
same,serum OCN,"[1]; fed Bglap-/- male mice, 15 min, mouse 4",45.1 ng/mL
same,serum OCN,"[1]; fed Bglap-/- male mice, 15 min, mouse 5",35.2 ng/mL
same,serum OCN,"[1]; fed Bglap-/- male mice, 15 min, mouse 6",29.7 ng/mL
same,serum OCN,"[1]; fed Bglap-/- male mice, 15 min, mouse 7",14.2 ng/mL
same,serum OCN,"[1]; fed Bglap-/- male mice, 15 min, mouse 8",30.7 ng/mL
same,serum OCN,"[1]; fed Bglap-/- male mice, 15 min, mouse 9",21.4 ng/mL
same,serum OCN,"[1]; fed Bglap-/- male mice, 30 min, mouse 1",67.5 ng/mL
same,serum OCN,"[1]; fed Bglap-/- male mice, 30 min, mouse 2",58.2 ng/mL
same,serum OCN,"[1]; fed Bglap-/- male mice, 30 min, mouse 3",51.8 ng/mL
same,serum OCN,"[1]; fed Bglap-/- male mice, 30 min, mouse 4",52.9 ng/mL
same,serum OCN,"[1]; fed Bglap-/- male mice, 30 min, mouse 5",43.5 ng/mL
same,serum OCN,"[1]; fed Bglap-/- male mice, 30 min, mouse 6",27.8 ng/mL
same,serum OCN,"[1]; fed Bglap-/- male mice, 30 min, mouse 7",13.8 ng/mL
same,serum OCN,"[1]; fed Bglap-/- male mice, 30 min, mouse 8",34.7 ng/mL
same,serum OCN,"[1]; fed Bglap-/- male mice, 30 min, mouse 9",14.9 ng/mL
same,serum OCN,"[1]; fed Bglap-/- male mice, 60 min, mouse 1",46.1 ng/mL
same,serum OCN,"[1]; fed Bglap-/- male mice, 60 min, mouse 2",20.7 ng/mL
same,serum OCN,"[1]; fed Bglap-/- male mice, 60 min, mouse 3",25.4 ng/mL
same,serum OCN,"[1]; fed Bglap-/- male mice, 60 min, mouse 4",25.6 ng/mL
same,serum OCN,"[1]; fed Bglap-/- male mice, 60 min, mouse 5",15.8 ng/mL
same,serum OCN,"[1]; fed Bglap-/- male mice, 60 min, mouse 6",8.8 ng/mL
same,serum OCN,"[1]; fed Bglap-/- male mice, 60 min, mouse 7",7.2 ng/mL
same,serum OCN,"[1]; fed Bglap-/- male mice, 60 min, mouse 8",10.7 ng/mL
same,serum OCN,"[1]; fed Bglap-/- male mice, 60 min, mouse 9",5.7 ng/mL
same,serum OCN,"[1]; fed Bglap-/- male mice, 90 min, mouse 1",16.3 ng/mL
same,serum OCN,"[1]; fed Bglap-/- male mice, 90 min, mouse 2",7.1 ng/mL
same,serum OCN,"[1]; fed Bglap-/- male mice, 90 min, mouse 3",9.0 ng/mL
same,serum OCN,"[1]; fed Bglap-/- male mice, 90 min, mouse 4",10.0 ng/mL
same,serum OCN,"[1]; fed Bglap-/- male mice, 90 min, mouse 5",6.0 ng/mL
same,serum OCN,"[1]; fed Bglap-/- male mice, 90 min, mouse 6",4.4 ng/mL
same,serum OCN,"[1]; fed Bglap-/- male mice, 90 min, mouse 7",4.7 ng/mL
same,serum OCN,"[1]; fed Bglap-/- male mice, 90 min, mouse 8",5.4 ng/mL
same,serum OCN,"[1]; fed Bglap-/- male mice, 90 min, mouse 9",4.0 ng/mL
same,serum OCN,"[1]; fed Bglap-/- male mice, 120 min, mouse 1",8.1 ng/mL
same,serum OCN,"[1]; fed Bglap-/- male mice, 120 min, mouse 2",4.4 ng/mL
same,serum OCN,"[1]; fed Bglap-/- male mice, 120 min, mouse 3",5.4 ng/mL
same,serum OCN,"[1]; fed Bglap-/- male mice, 120 min, mouse 4",6.0 ng/mL
same,serum OCN,"[1]; fed Bglap-/- male mice, 120 min, mouse 5",4.2 ng/mL
same,serum OCN,"[1]; fed Bglap-/- male mice, 120 min, mouse 6",3.7 ng/mL
same,serum OCN,"[1]; fed Bglap-/- male mice, 120 min, mouse 7",3.8 ng/mL
same,serum OCN,"[1]; fed Bglap-/- male mice, 120 min, mouse 8",4.1 ng/mL
same,serum OCN,"[1]; fed Bglap-/- male mice, 120 min, mouse 9",3.6 ng/mL
same,serum OCN,"[1]; fed Bglap-/- male mice, 180 min, mouse 1",1.9 ng/mL
same,serum OCN,"[1]; fed Bglap-/- male mice, 180 min, mouse 2",2.1 ng/mL
same,serum OCN,"[1]; fed Bglap-/- male mice, 180 min, mouse 3",1.8 ng/mL
same,serum OCN,"[1]; fed Bglap-/- male mice, 180 min, mouse 4",1.6 ng/mL
same,serum OCN,"[1]; fed Bglap-/- male mice, 180 min, mouse 5",3.4 ng/mL
same,serum OCN,"[1]; fed Bglap-/- male mice, 180 min, mouse 6",3.4 ng/mL
same,serum OCN,"[1]; fed Bglap-/- male mice, 180 min, mouse 7",3.4 ng/mL
same,serum OCN,"[1]; fed Bglap-/- male mice, 180 min, mouse 8",3.6 ng/mL
same,serum OCN,"[1]; fed Bglap-/- male mice, 180 min, mouse 9",3.4 ng/mL
same,Serum OCN at 120 minutes,"[1]; fed Bglap-/- male mice, dose 40 ng/g i.p., mouse 1",8.1 ng/mL
same,Serum OCN at 120 minutes,"[1]; fed Bglap-/- male mice, dose 40 ng/g i.p., mouse 2",4.4 ng/mL
same,Serum OCN at 120 minutes,"[1]; fed Bglap-/- male mice, dose 40 ng/g i.p., mouse 3",5.4 ng/mL
same,Serum OCN at 120 minutes,"[1]; fed Bglap-/- male mice, dose 40 ng/g i.p., mouse 4",6 ng/mL
same,Serum OCN at 120 minutes,"[1]; fed Bglap-/- male mice, dose 80 ng/g i.p., mouse 1",6.9 ng/mL
same,Serum OCN at 120 minutes,"[1]; fed Bglap-/- male mice, dose 80 ng/g i.p., mouse 2",5.7 ng/mL
same,Serum OCN at 120 minutes,"[1]; fed Bglap-/- male mice, dose 80 ng/g i.p., mouse 3",13 ng/mL
same,% OCN from initial (relative to maximum at 30 min),"[1]; 30 min, mouse 1",100.0%
same,% OCN from initial (relative to maximum at 30 min),"[1]; 30 min, mouse 2",100.0%
same,% OCN from initial (relative to maximum at 30 min),"[1]; 30 min, mouse 3",100.0%
same,% OCN from initial (relative to maximum at 30 min),"[1]; 30 min, mouse 4",100.0%
same,% OCN from initial (relative to maximum at 30 min),"[1]; 60 min, mouse 1",75.4%
same,% OCN from initial (relative to maximum at 30 min),"[1]; 60 min, mouse 2",76.8%
same,% OCN from initial (relative to maximum at 30 min),"[1]; 60 min, mouse 3",78.6%
same,% OCN from initial (relative to maximum at 30 min),"[1]; 60 min, mouse 4",88.7%
same,% OCN from initial (relative to maximum at 30 min),"[1]; 90 min, mouse 1",53.9%
same,% OCN from initial (relative to maximum at 30 min),"[1]; 90 min, mouse 2",65.1%
same,% OCN from initial (relative to maximum at 30 min),"[1]; 90 min, mouse 3",67.6%
same,% OCN from initial (relative to maximum at 30 min),"[1]; 90 min, mouse 4",78.8%
same,% OCN from initial (relative to maximum at 30 min),"[1]; 120 min, mouse 1",40.6%
same,% OCN from initial (relative to maximum at 30 min),"[1]; 120 min, mouse 2",54.6%
same,% OCN from initial (relative to maximum at 30 min),"[1]; 120 min, mouse 3",56.7%
same,% OCN from initial (relative to maximum at 30 min),"[1]; 120 min, mouse 4",71.4%
same,"% OCN from initial, mean used for 1/2 life",[1]; time 0 min of declining phase,100.0%
same,"% OCN from initial, mean used for 1/2 life",[1]; time 30 min of declining phase,79.9%
same,"% OCN from initial, mean used for 1/2 life",[1]; time 60 min of declining phase,66.3%
same,"% OCN from initial, mean used for 1/2 life",[1]; time 90 min of declining phase,55.8%
same,% OCN from initial,"human plasmin; plasmin 0 U/ml, replicate 1",91.2%
same,% OCN from initial,"human plasmin; plasmin 0 U/ml, replicate 2",108.8%
same,% OCN from initial,"human plasmin; plasmin 0.024 U/ml, replicate 1",69.0%
same,% OCN from initial,"human plasmin; plasmin 0.024 U/ml, replicate 2",80.5%
same,% OCN from initial,"human plasmin; plasmin 0.12 U/ml, replicate 1",38.3%
same,% OCN from initial,"human plasmin; plasmin 0.12 U/ml, replicate 2",44.1%
same,% OCN from initial,"human plasmin; plasmin 0.3 U/ml, replicate 1",11.5%
same,% OCN from initial,"human plasmin; plasmin 0.3 U/ml, replicate 2",15.5%
same,% OCN from initial in plasmin (0.3 U/ml),human plasmin; replicate 1,11.5%
same,% OCN from initial in plasmin (0.3 U/ml),human plasmin; replicate 2,15.5%
same,% OCN from initial in plasmin (0.3 U/ml),human plasmin; replicate 3,12.3%
same,% OCN from initial in plasmin (0.3 U/ml),human plasmin; replicate 4,11.4%
same,% OCN from initial in plasmin (0.3 U/ml),human plasmin; replicate 5,9.9%
same,reduction of concentration by plasmin,human plasmin; two hours,more than 90%
